# Measurements as given in patent US20040087506A1, “Methods of modulating FabH activity” (SmithKline Beecham Corporation, priority 1999, published 2004).
# B1: E. coli FabH (Escherichia coli K-12) (protein)
# chain: MYTKIIGTGSYLPEQVRTNADLEKMVDTSDEWIVTRTGIRERHIAAPNETVSTMGFEAATRAIEMAGIEKDQIGLIVVATTSATHAFPSAACQIQSMLGIKGCPAFDVAAACAGFTYALSVADQYVKSGAVKYALVVGSDVLARTCDPTDRGTIIIFGDGAGAAVLAASEEPGIISTHLHADGSYGELLTLPNADRVNPENSIHLTMAGNEVFKVAVTELAHIVDETLAANNLDRSQLDWLVPHQANLRIISATAKKLGMSMDNVVVTLDRHGNTSAASVPCALDEAVRDGRIKPGQLVLLEAFGGGFTWGSALVRF
# Substrate: CC(=O)SCCNC(=O)CCNC(=O)[C@H](O)C(C)(C)COP(=O)(O)OP(=O)(O)OC[C@H]1O[C@@H](n2cnc3c(N)ncnc32)[C@H](O)[C@@H]1OP(=O)(O)O
# Assay: purified protein, by the assay type
# Conditions: other: substrate of FabH; ping-pong mechanism, acetyl-CoA first substrate, malonyl-ACP second
protein,measurement,value
B1,Km,34 µM
